± gives the standard deviation of the averaged measurements.
test system: VchCAST RNA-guided transposition machinery (E. coli BL21(DE3) host, lacZ target); assay: relative integration efficiency (T-RL orientation) vs wild-type transposon end (log2 (normalized fold change)); transposon end mutated: right end (5 bp flank + 75 bp right end); higher = more efficient transposition
Method in brief: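 Relative integration efficiency is a fold change of output over input barcode abundance, normalised to reference barcodes and log-transformed. Input plasmids and genomic integration junctions were PCR-amplified and Illumina-sequenced from E. coli BL21(DE3) co-transformed with a T7-driven effector plasmid and pUC57 donor pools of 1549 left-end or 1849 right-end transposon variants. Plating was done with 0.1 mM IPTG at 37°C for 18 h, with two biological output replicates and four reference barcodes.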

| Sequence | relative integration efficiency (log2) |
| --- | --- |
| ACATTTGTTGATACACCCATAAATTGATAATTACAACCATAAAATGATAATTATCACACCCATAAATTGATATTGCCTCTGATCATAGTCAGACCAACATTGCTACGACCCGTATTCGCACCGACAC | -0.475 ± 0.089 |
| ACATTTGTTGATACAACCATAAAATGATAATTACACCCATAAATTGCGCCTTATCACACCCATAAATTGATATTGCCTCTGATCATAGTCAGACCAACATTGCTACGACCCGTATTCGCACCGACAC | -1.39 ± 0.2 |
| ACATTTGTTGATACAACCATAAAATGATAATTACACCCATAAATTGATAATTGTGACACCGAATTTAACTATAACGCTCTGATCATAGTCAGACCAACATTGCTACGACCCGTATTCGCACCGACAC | -0.766 ± 0.25 |
| ACATTTGTTGATACAACCATAAAGTGATATTTACACCCATAAATTGATATTGCTCACAACCATAAGTTGATATTTTCTCTGATCATAGTCAGACCAACATTGCTACGACCCGTATTCGCACCGACAC | -0.138 ± 0.13 |
| ACATTTGTTGATACAACCATAAAATGATAATTACACCCATAAATTGATAAAAATCACACCCATAAATTGATATTGCCTCTGATCATAGTCAGACCAACATTGCTACGACCCGTATTCGCACCGACAC | -0.355 ± 0.081 |
| ACATTTGTTGATACAACCATAACCTGATAATTACACCCATAAATTGATAATTATCACACCCATAAATTGATATTGCCTCTGATCATAGTCAGACCAACATTGCTACGACCCGTATTCGCACCGACAC | -0.321 ± 0.01 |
| ACATTTGTTGATACAACCATAAAATGATCATTACCCCCATCAATTGATAATTATCCCACCCCATTTAACTATAACGCTCTGATCATAGTCAGACCAACATTGCTACGACCCGTATTCGCACCGACAC | -3.97 ± 0.23 |
| ACATTTGTTGATACAACCATAAAATGATAATTAATAATTATTTATAATCAGCAACTCACCCATAAATTGATAATTATCAACAAACGCCCGGTCGCGGTACTCTGATCATAGTCAGACCAACATTGCT | -2.25 ± 0.75 |
| ACATTTGTTGATACCACCATAAAATGATAATTCCACCCATAAATTGATAATTATCACACCCAATTTAACTATAACGCTCTGATCATAGTCAGACCAACATTGCTACGACCCGTATTCGCACCGACAC | -1.1 ± 0.17 |
| ACAGGTGTTGATACAACCATAAAATGATAATTACACCCATAAATTGATAATTATCACACCCATAAATTGATATTGCCTCTGATCATAGTCAGACCAACATTGCTACGACCCGTATTCGCACCGACAC | -0.284 ± 0.012 |
| ACATTTGTTGATACAACCATAAAATGATAATTACACCCATAAATTGATAATTATCACACCCATAAATTGATATTGCCTCTGCAACCATAAAATGATAATTAATCATAGTCAGACCAAGCACCGACAC | -0.336 ± 0.3 |
| ACATTTGTTGATACAACCATAAAATGATAATTACAACCATAAAATGATAATTATCACAACCATAAAGTGATATTTACTCTGATCATAGTCAGACCAACATTGCTACGACCCGTATTCGCACCGACAC | -0.175 ± 0.14 |
| ACATTTGTTGATACCACCATAAAATGATAATTCCACCCCTAAATTGATAATTATCACACCCAATTTAACTATAACGCTCTGATCATAGTCAGACCAACATTGCTACGACCCGTATTCGCACCGACAC | -2.92 ± 0.31 |
| ACATTAGTGGATACAACCATAAAATGATAATTACACCCATAAATGGATAATTATCACACCCAATTTAACTATAACGCTCTGATCATAGTCAGACCAACATTGCTACGACCCGTATTCGCACCGACAC | -7.08 ± 1.1 |
| ACATTTGTTGATACAACCATTTAATGATAATTACACCCATAAATTGATAATTATCACACCCATAAATTGATATTGCCTCTGATCATAGTCAGACCAACATTGCTACGACCCGTATTCGCACCGACAC | -0.195 ± 0.052 |
| ACATTTGTTCATACAACCCTAAAATGATAATTACACCCATAAATTCATCATTATCACCCCCAATTTAACTATAACGCTCTGATCATAGTCAGACCAACATTGCTACGACCCGTATTCGCACCGACAC | -5.29 ± 0.22 |

| Sequence | relative integration efficiency (log2) |
| --- | --- |
| ACATTTGTTGATACACAACGCCCCGTCGCCGGCACAAACGCCCGGTCGCCGGCGACACAAACGCCCGGTCGCGGTAAGAGGATCATAGTCAGACCAACATTGCTACGACCCGTATTCGCACCGACAC | -7.89 ± 0.53 |
| ACATTTGTTGATACAACCATAAAATGATAATTACACCCATAAATTGATAATTATCACACCCATAAATTGATATTGCCTCTGATAACTTCGTATAAGGTATACTATACGAAGTTATTCGCACCGACAC | -0.433 ± 0.28 |
| ACATTTGTTGATACAACCATAAAATGATAATTACACCCATAAATTGATAATTATCACACCACGCCCGGTCGCGGTAAGAGGATCATAGTCAGACCAACATTGCTACGACCCGTATTCGCACCGACAC | -0.546 ± 0.089 |
| ACATTTGTTGATACAACCATAAAATGATAATTACAACCATAAGTTGATATTTTTCAGTGGGTATTTAACTATAACGCTCTGATCATAGTCAGACCAACATTGCTACGACCCGTATTCGCACCGACAC | -0.515 ± 0.22 |
| ACATTTGTTGATACAACCATAAAATGATAATTAATAATTATTTATAATCAGCAACTCACCCATAAATTGATAATTATCACACCCATAAATTGATATTGCCTCTGATCATAGTCAGACCAACATTGCT | -3.48 ± 0.49 |
| ACATTTGTTCATACAACCATAAAATGATAATTACCACCCATACATTGATAATTATCACACCCATTTAACTATAACGCTCTGATCATAGTCAGACCAACATTGCTACGACCCGTATTCGCACCGACAC | -3.31 ± 0.39 |
| ACATTTGTCGATCCAACCATAAAATGATAATTACACCCATAAATTGATAATTATCACACCCAATTTAACTATAACGCTCTGATCATAGTCAGACCAACATTGCTACGACCCGTATTCGCACCGACAC | -0.969 ± 0.28 |
| ACATTTGTTGATACAACCATAAAATGATAATTACACCCATAAATTGATAATTATCACACCCATAAATTGATATTGCCTCTTCATGCAGATTTGAACAGTAAGTTTACGACATTTTCAGCACCGACAC | -0.604 ± 0.37 |
| ACATTTGTTGATACACCCATAAATTGATATTGCCACCCATAAATTGATAATTATCACACCCATAAATTGATATTGCCTCTGATCATAGTCAGACCAACATTGCTACGACCCGTATTCGCACCGACAC | -0.842 ± 0.076 |
| ACATTTGTTGATACAACCATATATTGATATCTCCAACCATAAGTTGATATTTTTCACAACCATAAAATGATAATTACTCTGATCATAGTCAGACCAACATTGCTACGACCCGTATTCGCACCGACAC | -0.279 ± 0.084 |
| ACATTTGTTGATACAACCATAAAGTGATATTTACAACCATAAAATGATAATTATCACAACCATATATTGATATCTCCTCTGATCATAGTCAGACCAACATTGCTACGACCCGTATTCGCACCGACAC | -0.261 ± 0.13 |
| ACATTTGTTGATACAACCATAAGTTGATATTTTCAACCATAAGTTGATATTTTTCACAACCATATATTGATATCTCCTCTGATCATAGTCAGACCAACATTGCTACGACCCGTATTCGCACCGACAC | -0.102 ± 0.021 |
| ACATTTGTTGATACAACCCTAAAATGATAATTACACCCATAAATTGATAATTATCACCCCCAATTTAACTATAACGCTCTGATCATAGTCAGACCAACATTGCTACGACCCGTATTCGCACCGACAC | -1.61 ± 0.24 |
| ACATTTGTTGATACAACCATAAAGTGATATTTACAACCATAAAGTGATATTTATCACAACCATATATTGATATCTCCTCTGATCATAGTCAGACCAACATTGCTACGACCCGTATTCGCACCGACAC | 0.115 ± 0.19 |
| ACATTTGTTGATAAAACCATAAAATGATTATTACACCCATAAATTGATAATTATCACACCCATAAATTGATATTGCCTCTGATCATAGTCAGACCAACATTGCTACGACCCGTATTCGCACCGACAC | -1.05 ± 0.087 |
| CAAAATGTAAAAACAACCATAAAATGATAATTAGAAACCATACGCTGAAATAAAAACAACCATACCTTGAAATTGCTTATAAAGTGTACAACACTTGAGAAAGTTTACTACAGGTATGCACCGACAC | -0.449 ± 0.47 |

— the supplement of paper PMC10201428
